Source: article PMC8647176, “Helical filament structure of the DREP3 CIDE domain reveals a unified mechanism of CIDE-domain assembly” (Acta Crystallographica. Section D, Structural Biology, 2021)

Molecular target: the molecule itself
Test: SEC; Superdex 200 Increase 10/300 GL, 20 mM Tris-HCl pH 7.9, 500 mM NaCl; also series at 1, 5 and 15 mg ml^-1 protein and at four NaCl concentrations

B1: DREP3 CIDE domain (DNA fragmentation factor-related protein 3, residues Phe112-Asp195) (domain or fragment, Drosophila melanogaster, UniProt Q0E9B7 112-195, looked up)
chain: FAQLDNSKPFKIKDITRNIRKAVVATTLSELRTKVSLKFERAQPAIHLDCDGTEVDDEEYFSTLEPNAELIAVFPGEQWRDPSD
notes: DREP3 (DNA fragmentation factor-related protein 3), Drosophila melanogaster, UniProt Q0E9B7, CIDE domain, residues Phe112-Asp195; Cloned with NdeI and XhoI into pET-21a; The final model of PDB 7v6e holds residues 117-193; also called wild-type DREP3 CIDE domain; WT DREP3 CIDE domain; source: E. coli BL21 (DE3), purified (Ni-NTA, SEC)
Does B1 bind?
Result: binds
